Substrate in this data set: O=CCO
Put plainly: steady-state enzyme kinetics. In kind it is biochemical, Escherichia coli. As to conditions: 50 mM Li-HPA (lithium beta-hydroxypyruvate, saturating), 4-80 mM glycolaldehyde.

For three proteins, Km and kcat results are on record in publication PMC6255212, “Coupled molecular dynamics mediate long- and short-range epistasis between mutations that affect stability and aggregation kinetics” (Proceedings of the National Academy of Sciences of the …, 2018).

B1: Escherichia coli transketolase (TK) (Escherichia coli K-12; A282P/H192P/I365L) (protein)
chain: SSRKELANAIRALSMDAVQKAKSGHPGAPMGMADIAEVLWRDFLKHNPQNPSWADRDRFVLSNGHGSMLIYSLLHLTGYDLPMEELKNFRQLHSKTPGHPEVGYTAGVETTTGPLGQGIANAVGMAIAEKTLAAQFNRPGHDIVDHYTYAFMGDGCMMEGISHEVCSLAGTLKLGKLIAFYDDNGISIDGPVEGWFTDDTAMRFEAYGWHVIRDIDGHDAASIKRAVEEARAVTDKPSLLMCKTIIGFGSPNKAGTHDSHGAPLGDAEIALTREQLGWKYPPFEIPSEIYAQWDAKEAGQAKESAWNEKFAAYAKAYPQEAAEFTRRMKGEMPSDFDAKAKEFIAKLQANPAKIASRKASQNALEAFGPLLPEFLGGSADLAPSNLTLWSGSKAINEDAAGNYIHYGVREFGMTAIANGISLHGGFLPYTSTFLMFVEYARNAVRMAALMKQRQVMVYTHDSIGLGEDGPTHQPVEQVASLRVTPNMSTWRPCDQVESAVAWKYGVERQDGPTALILSRQNLAQQERTEEQLANIARGGYVLKDCAGQPELIFIATGSEVELAVAAYEKLTAEGVKARVVSMPSTDAFDKQDAAYRESVLPKAVTARVAVEAGIADYWYKYVGLNGAIVGMTTFGESAPAELLFEEFGFTVDNVVAKAKELL
notes: homodimer of 70- to 74-kDa monomers; holo enzyme with ThDP and Mg2+
As to B1, the Km is on record as 19.5(2.1) mM and the kcat is given as 68.9(2.6) s-1.

B2: Escherichia coli transketolase (TK) (Escherichia coli K-12; A282P/G506A/H192P/I365L) (protein)
chain: SSRKELANAIRALSMDAVQKAKSGHPGAPMGMADIAEVLWRDFLKHNPQNPSWADRDRFVLSNGHGSMLIYSLLHLTGYDLPMEELKNFRQLHSKTPGHPEVGYTAGVETTTGPLGQGIANAVGMAIAEKTLAAQFNRPGHDIVDHYTYAFMGDGCMMEGISHEVCSLAGTLKLGKLIAFYDDNGISIDGPVEGWFTDDTAMRFEAYGWHVIRDIDGHDAASIKRAVEEARAVTDKPSLLMCKTIIGFGSPNKAGTHDSHGAPLGDAEIALTREQLGWKYPPFEIPSEIYAQWDAKEAGQAKESAWNEKFAAYAKAYPQEAAEFTRRMKGEMPSDFDAKAKEFIAKLQANPAKIASRKASQNALEAFGPLLPEFLGGSADLAPSNLTLWSGSKAINEDAAGNYIHYGVREFGMTAIANGISLHGGFLPYTSTFLMFVEYARNAVRMAALMKQRQVMVYTHDSIGLGEDGPTHQPVEQVASLRVTPNMSTWRPCDQVESAVAWKYAVERQDGPTALILSRQNLAQQERTEEQLANIARGGYVLKDCAGQPELIFIATGSEVELAVAAYEKLTAEGVKARVVSMPSTDAFDKQDAAYRESVLPKAVTARVAVEAGIADYWYKYVGLNGAIVGMTTFGESAPAELLFEEFGFTVDNVVAKAKELL
notes: as for B1
On to B2, for which the Km is 22.7(2.2) mM and the kcat was 58.3(2.1) s-1.

B3: Escherichia coli transketolase (TK) (Escherichia coli K-12; A282P/G506A/H192P) (protein)
chain: SSRKELANAIRALSMDAVQKAKSGHPGAPMGMADIAEVLWRDFLKHNPQNPSWADRDRFVLSNGHGSMLIYSLLHLTGYDLPMEELKNFRQLHSKTPGHPEVGYTAGVETTTGPLGQGIANAVGMAIAEKTLAAQFNRPGHDIVDHYTYAFMGDGCMMEGISHEVCSLAGTLKLGKLIAFYDDNGISIDGPVEGWFTDDTAMRFEAYGWHVIRDIDGHDAASIKRAVEEARAVTDKPSLLMCKTIIGFGSPNKAGTHDSHGAPLGDAEIALTREQLGWKYPPFEIPSEIYAQWDAKEAGQAKESAWNEKFAAYAKAYPQEAAEFTRRMKGEMPSDFDAKAKEFIAKLQANPAKIASRKASQNAIEAFGPLLPEFLGGSADLAPSNLTLWSGSKAINEDAAGNYIHYGVREFGMTAIANGISLHGGFLPYTSTFLMFVEYARNAVRMAALMKQRQVMVYTHDSIGLGEDGPTHQPVEQVASLRVTPNMSTWRPCDQVESAVAWKYAVERQDGPTALILSRQNLAQQERTEEQLANIARGGYVLKDCAGQPELIFIATGSEVELAVAAYEKLTAEGVKARVVSMPSTDAFDKQDAAYRESVLPKAVTARVAVEAGIADYWYKYVGLNGAIVGMTTFGESAPAELLFEEFGFTVDNVVAKAKELL
notes: as for B1
On to B3, for which the Km is on record as 20.2(1.5) mM and the kcat is listed as 54.3(1.4) s-1.
